Assay results: patent publication US20260365696A1, “INHIBITORS OF PTP1B / NCK1 INTERACTION AND METHODS OF MAKING AND USING SAME” (Radella Pharmaceuticals LLC, priority 2023, published 2026)
Non-standard residues stand in square brackets, D forms with d. No end group written: not given here. pGlu = O=C1CC[C@@H](C(=O)O)N1

T1: NCK1 SH3-2 domain (human)
T1 chain: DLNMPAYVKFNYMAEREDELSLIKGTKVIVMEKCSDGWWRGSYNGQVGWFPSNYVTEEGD


Target: T1, NCK1 SH3-2 domain
Assay: ITC

| binding result | Binder |
| --- | --- |
| no binding | H-PAVPPRP-NH2 [MH081] |
| no binding | Ac-PAVPPRP-NH2 [MH082] |
| no binding | Ac-SPAKGEPSLPEK-NH2 [MH133] |

Target: T1, NCK1 SH3-2 domain
Assay: ITC
Remark: another data set of the same source

| Kd [µM] | Binder |
| --- | --- |
| < 600 | Ac-PPRLPKR-NH2 [MH101] |
| < 600 | Ac-PPRTPKR-NH2 [MH115] |
| > 600 | Ac-PPRFPKR-NH2 [MH067] |
| < 300 | Ac-PPRIPKR-NH2 [MH097] |
| < 600 | Ac-PPRYPKR-NH2 [MH121] |
| < 600 | Ac-PPRRPKR-NH2 [MH062] |
| < 600 | Ac-PPRKPKR-NH2 [MH104] |
| < 300 | Ac-PPRVPKR-NH2 [MH125] |

Target: T1, NCK1 SH3-2 domain
Assay: ITC
Remark: another data set of the same source

| Kd [mM] | Binder |
| --- | --- |
| > 1 | Ac-PPPRPPK-NH2 [MH041] |
| > 1 | Ac-IPPPPR-NH2 [MH038] |
| > 1 | Ac-EHIPPP-NH2 [MH039] |
| > 1 | Ac-PPPPRP-NH2 [MH037] |
| > 1 | Ac-PPEHIP-NH2 [MH040] |
| > 1 | Ac-PPPRPP-NH2 [MH036] |
| > 1 | Ac-PPRPPK-NH2 [MH035] |

Target: T1, NCK1 SH3-2 domain
Assay: ITC
Remark: another data set of the same source

| Kd [µM] | Binder |
| --- | --- |
| < 300 | Ac-APRPPKR-NH2 [MH047] |

Target: T1, NCK1 SH3-2 domain
Assay: ITC
Remark: another data set of the same source

| Kd [µM] | Binder |
| --- | --- |
| < 300 | Ac-PPRPPKR-NH2 [MD18] |
| < 300 | Ac-PRPPKR-NH2 [MD20] |
| < 300 | Ac-APRPPKR-NH2 [MH047] |

Target: T1, NCK1 SH3-2 domain
Assay: ITC
Remark: another data set of the same source

| Kd [µM] | Binder |
| --- | --- |
| < 300 | H-PPRPPKR-NH2 [MH075] |
| < 300 | Ac-PPRPPKR-NHEt [MH046] |
| < 300 | Ac-APRPPKR-NH2 [MH047] |
| > 1000 | Ac-PPRPPKK-NH2 [MH076] |
| < 300 | EPRPPKR-NH2 (not fully specified (residue 1)) [MH043] |

Target: T1, NCK1 SH3-2 domain
Assay: ITC
Remark: another data set of the same source

| Kd [mM] | Binder |
| --- | --- |
| < 0.3 | Ac-PAPPKR-NH2 [MH009] |
| < 0.6 | Ac-PRPPAR-NH2 [MH012] |
| < 0.3 | Ac-PRPPKR-NH2 [MD20] |
| > 1 | Ac-PRPPKA-NH2 [MH013] |
| > 1 | Ac-PRAPKR-NH2 [MH010] |
| > 1 | Ac-PRPAKR-NH2 [MH011] |
| > 1 | Ac-ARPPKR-NH2 [MH008] |

Target: T1, NCK1 SH3-2 domain
Assay: ITC
Remark: another data set of the same source

| Kd [µM] | Binder |
| --- | --- |
| < 193 | Ac-PPRPPKR-NH2 [MD18] |
| < 193 | Ac-PRPPKR-NH2 [MD20] |

Target: T1, NCK1 SH3-2 domain
Assay: ITC
Remark: another data set of the same source

| binding result | Binder |
| --- | --- |
| no binding | [pGlu]RPPKR-NH2 [MH044] |
